# The DeepSol protein solubility set
# Test: soluble on expression in E. coli; label from the status in PepcDB or PDB records
row,Sequence,soluble on expression in E. coli
1,MKEKVSMVSLGCPKNLVDAEVMLGCLAKDQYEITTDEHEADIIIVNTCSFIGDAKKESIDTILDLADRKHDGRCKLLVVTGCLPQRYQEELATELPEVDIFVGTADYPRIAEIIAEKRGVAEQLRYISDPNYIFDESLPRLKSSPAYTAYLKIAEGCSNCCSYCVIPSLRGALRSRPLDNLLMEARTLVATGTREINLIAQDITAWGRDLPGSPTLEELVRELAKIVGLRWIRLLYAYPDGITDGLIEIIKTEPKVCKYLDIPIQHISDPVLKRMNRRSTEPQIRALIAKIRAEIPEIALRTSLIVGFPGETEEDFRTLLHYVEETQFDRLGVFCYSREEGTPAAGMEDQVSERVKRDRYKKLMKVQARLSFKRNRRLIDTEEEVIVEGYSDETDLLLKGRSSRQAPDIDGQVYITAGNANVGDIVRLRITDSSDYDLIGEIVEELEHHHHHH,soluble
2,MPTNQDLQLAAHLRSQVTTLTRRLRREAQADPVQFSQLVVLGAIDRLGGDVTPSELAAAERMRSSNLAALLRELERGGLIVRHADPQDGRRTRVSLSSEGRRNLYGNRAKREEWLVRAMHACLDESERALLAAAGPLLTRLAQFEEP,soluble
3,MRFTVTSRGDDVSNTLQQKIKRYLLDFGLTLDEQEPDIVITVGGDGTLLHAFHRYTSRLEDTAFVGIHTGHLGFYADWVPDEVEKLVIHIAKTPYQIVEYPLLEVVVRHTDESESKRLLALNECTVKSQEGSLVSNVEIKGDVFEVFRGDGLCISTPSGSTAYNKALGGAILHPSLASIQISEMASINNRVYRTIGSPLVLPQHHTCLIKPLNQVELQVTIDHFTLAYKRVKSIQCRVAEEKIRFARFRPFPFWKRVKESFIGDSLEHHHHHH,soluble
4,MIKRNLLVIGLAVMLSACGFQLRGTGATELSVKEMDVSARNAYGPTVLQLREVLERSGVNVHAGAPYRLVLTNEQERERSATYNSGNRTAEYELTTKLDYSILGLNNLELMSDKLEVRKVYVRDGSNITGSEQEAKRAREEMRRDLVNAMVVRLQMLSPPQLDELQRKADERAQAEAAALEAARRQQAETPQQSPLEVPGN,not soluble
5,MGSDKIHHHHHHMQQGQMAYDRAITVFSPDGRLFQVEYAREAVKKGSTALGMKFANGVLLISDKKVRSRLIEQNSIEKIQLIDDYVAAVTSGLVADARVLVDFARISAQQEKVTYGSLVNIENLVKRVADQMQQYTQYGGVRPYGVSLIFAGIDQIGPRLFDCDPAGTINEYKATAIGSGKDAVVSFLEREYKENLPEKEAVTLGIKALKSSLEEGEELKAPEIASITVGNKYRIYDQEEVKKFL,not soluble
6,MDQNPNYNFGYGQAYGSGTDHTSDSTNNYNWASQWSQPESAASLATHTFPQYVSQQQQQQQQQAQQQAQNTYAAMNPISTFMQQQQRAQTFPQKKYGQQGGAPKPSAIRNNNFGAFGGGHALSQEWVQPMSQNQMGGPQGNRFFNNQKGGPFNQNKPNWRQNKPKGPAAPKKFDSTGKSPAMLLHELFKDVSEEYTEVEGVPKKYCCTLKVNGRTFQMESVNKKAAKQKCSELVVRDLRPDVHVTPFEEGVAAKAAAPVKKEIDAASGNGQNNKRNLLQADAISNQPTPKKVSAVKKAKLQLTPVESALSLLDLMQKIIAESAEKYSPVFEASEVPKDPEIPEVEVKKEEVDTNGENVANEKKSGWRKNETMHNVTLKFVEQNKQYTKMGPSRGVLKDMVIREALRDLFNVSHADITTVARRHASNRLGHDTTILQCLNTICSILNCTLTIECEPAEDRPLGIGRAYFMAKCTIIDHNENDLKFEVKSSSLASKAMAKDWVAQETLKNYFAIDPSSCVKTDAVSSQGPCALLHAMLNKQTKQKCKIAYEFKDNVPPVAGQATTTFYCECVIDETDRYIGVGRSKKLAKSEAAMQALKKLFKIDYDPAGNYPLALTSRAMTESKVSPLCRHIAEFCKREYHQMTEYYQIPPSNLFAAFLLVNAQEEKRVLAMGSSIQYIVEPDTLSGANGTSLLHLDAIILARRAMLKAFIHELSTVDSECSIFEKKEEGKAALKPNLRLVLYSNYSPPCIHAVDDAATKKLSYVTPTNLTCVPDDVLTYEQIKETKSLRVHCTADKLFKWNTLGIQGALLSNVLHPIFIDNIFFGSEAPVSDESLSYALQGRLGPNENEREIIVESMPVQMRMHMGISHLWHRGVDSVETLDYNTGRTSKGSPSRVCKAEIFEAYRKLNGVDQAVVNYAKAKEMASEYQYEKKVFYEKLEAAGLGKWQTKPAELVDSFTLAAFD,not soluble
7,MKYQLNLTALRCPIPLLSAKKALKNLDKNDELMLILNLESAVENFSIFAEENSVALVEQYYASEKEFIVILKK,not soluble
